Test results from patent publication US20220332804A1 (CSL INNOVATION, published 2022).
Substitutions are numbered along the chain they refer to.

Tests used:
Assay in all cases: SPR, KD relative to WT C2;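 further: biacore SPR at 37 °C, anti-C2 mAbs captured via immobilised goat anti-human IgG, C2 alanine or serine surface mutants as analytes, 1:1 model fitted, double-referenced sensograms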
human C2 T647A = molecular target: T1, human C2 T647A (human, UniProt P06681 21-752)
T1 sequence: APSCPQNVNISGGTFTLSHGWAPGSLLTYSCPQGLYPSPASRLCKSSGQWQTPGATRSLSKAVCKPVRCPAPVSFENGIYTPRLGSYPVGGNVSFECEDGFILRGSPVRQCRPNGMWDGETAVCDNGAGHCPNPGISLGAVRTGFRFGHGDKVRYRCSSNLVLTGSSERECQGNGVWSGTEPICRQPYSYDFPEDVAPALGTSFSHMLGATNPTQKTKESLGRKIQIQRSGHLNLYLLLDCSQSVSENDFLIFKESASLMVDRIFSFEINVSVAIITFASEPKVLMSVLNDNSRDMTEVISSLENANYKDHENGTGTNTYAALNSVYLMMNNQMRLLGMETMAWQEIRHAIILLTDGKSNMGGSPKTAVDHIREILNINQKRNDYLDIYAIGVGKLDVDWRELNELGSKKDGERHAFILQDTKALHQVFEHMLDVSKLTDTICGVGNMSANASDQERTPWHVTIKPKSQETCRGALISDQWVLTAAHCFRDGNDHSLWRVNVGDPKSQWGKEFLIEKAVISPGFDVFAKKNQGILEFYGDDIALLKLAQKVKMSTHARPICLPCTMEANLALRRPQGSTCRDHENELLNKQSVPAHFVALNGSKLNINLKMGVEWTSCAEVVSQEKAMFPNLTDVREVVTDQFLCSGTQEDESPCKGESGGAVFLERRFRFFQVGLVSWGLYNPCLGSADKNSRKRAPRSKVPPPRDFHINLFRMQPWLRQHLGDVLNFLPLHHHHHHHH

human C2 K485A = molecular target: T2, human C2 K485A (human, UniProt P06681 21-752)
T2 sequence: T1 sequence with K465A, A627T

human C2 H435A = molecular target: T3, human C2 H435A (human, UniProt P06681 21-752)
T3 sequence: T1 sequence with H415A, A627T

human C2 N325A = molecular target: T4, human C2 N325A (human, UniProt P06681 21-752)
T4 sequence: T1 sequence with N305A, A627T

B1: RF16-226 (antibody, human IgG4 S228P, lambda)
heavy: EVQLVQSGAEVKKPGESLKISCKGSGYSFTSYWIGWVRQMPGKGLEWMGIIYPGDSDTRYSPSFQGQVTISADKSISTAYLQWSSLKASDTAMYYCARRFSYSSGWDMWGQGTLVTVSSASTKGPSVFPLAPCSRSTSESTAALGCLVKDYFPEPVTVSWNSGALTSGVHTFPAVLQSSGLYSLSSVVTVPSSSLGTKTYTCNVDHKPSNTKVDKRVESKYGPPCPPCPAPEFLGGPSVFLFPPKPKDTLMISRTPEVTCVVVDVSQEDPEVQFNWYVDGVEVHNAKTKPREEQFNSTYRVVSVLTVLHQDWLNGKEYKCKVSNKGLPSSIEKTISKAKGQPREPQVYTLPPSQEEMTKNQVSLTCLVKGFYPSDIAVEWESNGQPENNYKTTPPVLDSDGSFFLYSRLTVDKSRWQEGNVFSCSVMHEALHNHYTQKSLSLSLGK
light: SYELTQPPSVSVSPGQTARITCSGDALTSKYVAWYQQKSGLAPLLVIYEDTRRPSGIPAKFSGSSSGSVATLTISGAHGDDEADYYCYSTDASGHQRVFGGGTKLTVLSQPKAAPSVTLFPPSSEELQANKATLVCLISDFYPGAVTVAWKADGSPVKAGVETTKPSKQSNNKYAASSYLSLTPEQWKSHRSYSCQVTHEGSTVEKTVAPTECS
notes: pH-dependent anti-C2 antibody from a phage display library; also called WT
How did the Fold diff (human C2 T647A) turn out when B1 was run?
The Fold diff was 15 fold.

What about the Fold diff (human C2 K485A) of the same binder?
The Fold diff was 1 fold.

And the Fold diff (human C2 H435A)?
Its Fold diff is 2 fold.

And the Fold diff (human C2 N325A)?
Its Fold diff is 5 fold.
